This experiment addresses T1, cata_human CAT (UniProt P04040).
T1 sequence: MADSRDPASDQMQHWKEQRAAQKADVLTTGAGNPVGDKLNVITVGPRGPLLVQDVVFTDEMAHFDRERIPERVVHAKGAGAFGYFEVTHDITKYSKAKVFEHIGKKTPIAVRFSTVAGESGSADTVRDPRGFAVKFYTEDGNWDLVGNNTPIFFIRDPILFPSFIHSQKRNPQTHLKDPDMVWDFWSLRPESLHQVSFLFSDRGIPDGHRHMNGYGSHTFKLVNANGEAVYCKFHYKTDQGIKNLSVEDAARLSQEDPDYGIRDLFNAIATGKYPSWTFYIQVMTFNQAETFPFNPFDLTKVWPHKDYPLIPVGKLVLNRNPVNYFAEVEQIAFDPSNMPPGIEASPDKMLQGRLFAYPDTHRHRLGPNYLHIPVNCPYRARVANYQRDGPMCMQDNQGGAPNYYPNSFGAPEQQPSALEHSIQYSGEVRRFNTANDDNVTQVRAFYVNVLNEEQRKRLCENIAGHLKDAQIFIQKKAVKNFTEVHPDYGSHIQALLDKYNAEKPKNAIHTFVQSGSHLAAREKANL

On to “Ras-related protein Rab-14 (Homo sapiens) (from UniProt P61106) Q70N”, for which the “effect of a mutation on the interaction” value is given as “increasing interaction”.
